According to the RNAGym collection of RNA variant scans (doi:10.1073/pnas.2313332121):

B1: TPR t1 (parent)
chain: GACCAAUCUGCCCUCAGAGCUCGAGAACAUCUUCGGAUGCAGAGGAGGCAGGCUUCGGUGGCGCGAUAGCGCCAACGUCCUCAACCUCCAAUGCAUCCCACCACAUGAUGAUGCCUGAAGAGCCUUGGUUUUUUG

Variants of: B1
Test: polymerase ribozyme fitness, log enrichment relative to wild type (log ratio); higher = more active; in vitro selection for triplet polymerase activity
Procedure, shortened: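 Only genotypes with ≥10 input reads and ≥1 read per output were kept after Illumina sequencing of input and output libraries. These libraries were PCR-built, transcribed mutants of each subunit of a heterodimeric triplet polymerase ribozyme, each put through one triplicate in vitro selection round with frozen incubation at −7 °C, gel excision of extended constructs, streptavidin-bead capture and RT-PCR. Fitness is a logarithmic ratio of genotype enrichment to wild-type enrichment, from inverse-variance-weighted replicate averages, with the logarithm in base 2.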

Variant | polymerase ribozyme fitness (log ratio)
G44C U78C C115G C123U | -4.64
G44A G51C C62G C85G G110C | -7.25
G44C A74C A111C | -0.547
A43U C85G A95C U112C | -2.22
G44A G45U G93A | -3.07
G44A C82U C101G | -2.82
A43U G48A | -1.56
G44A C124U | 0.684
G44A G69A C94U | -4.26
A43U A74U C104U C115U | -3.23
G44C A95G A118G | -1.3
A43U U78C | -1.53
G44A U55A C70U C85G G113A | -4.29
A43G G63A | -3.39
G44C C73U C86U U96G U129C | -2.46
G44C C115G | -2.64
G44A C70G | -4.21
A43U U129A | -2.81
G44A A95C C123G U132A | -1.17
A43U C70G G117A | -6.87
A43U G48U A50U C62U C88G C101G U112A | -5.19
G44C U106C | -0.754
A43U G69A | -5.69
G44A C72U A84U | -1.47

Variant | polymerase ribozyme fitness (log ratio)
G44A C72G C114A A121U G127C | -2.5
A43G G69C A90C | -2.1
A43U U54A A66U U112A | -3.74
G44A G117U | -3.1
A43U A111C | -1.94
A43U G61A U92A G93C | -1.44
G44A G60A A121C G122U | -1.92
G44A G48C C102U C124A | -1.74
A43U C72A C114U G128C | -5.92
G44C G45A G61U U78G | -4.37
G44A G60U A108G | -2.88
G44A A66G | -1.89
G44C C94G A121G | 0.2
G44U A84G G120C U130G | -2.91
G44A C64A C76A | -6.8
G44U A90U | -2.78
A43U G48C G57A C89U U106C | -2.94
G44A A111U | -4.79
G44A A66U C76A | -4.64
G44C G45U | -2.11
G44C U116C C124A | -0.551
A43U U81A C85G C124U | -4.75
A43U C88A U109A | -6.37
A43U U59G G110A | -5.07

Variant | polymerase ribozyme fitness (log ratio)
A43U G61A C73A C88A G93A A121U | -2.52
A43U C73U U92G G113A | -2.84
A43U C73U C123G G127C | -1.76
G44A C73G C85A U130A | -3.2
G44A G51U A68G A121G | -5.63
A43U A74G | -1.55
G44C C72U A75C U92G | -2.94
G44C A91C G120A | -0.836
A43U G45A G58C G69U | 0.218
G44U A46U G71U C114G U132A | -4.18
G44U A91U | -2.13
G44A A111U U132A | -3.18
A43U U59C | -1.99
A43U U55A C70G U112A G113A | -3.91
G44A G60C A111U | -5.02
G44A C89U C114G G127U U132A | -3.64
G44C G69A A91G A103C C115U | -5.28
G44C C56U | -0.735
A43G G128A | -3.36
A43G G128U | -4.43
G44A G93C | -2.23
G44A G93A | -1.2
A43U G71C | -2.56
G44A G61C U78C C79G U112G U133G | -3.14

Variant | polymerase ribozyme fitness (log ratio)
G44C G71U | -2.2
A43U C56A C73A U109A | -5.95
A43U A46U G58C G60A | -2.67
A43U U92A U106A | -2.69
G44C G58A A91G U92C | -3.08
G44C G60A | -1.01
G44C C49U | -2.11
A43U G120A | -0.64
G44A G63U | -1.78
G44A C72G C97U G113U G117A | -6.18
G44A A90U | -1.45
G44C C64U | -0.652
A43U G45A C53U C56G C62U A84U | -1.89
G44U C62G C79U A90G | -1.45
A43U A66C G71U | -5.02
A43U A46U | -2.27
G44C G63A C86A | -3.09
G44U C72G U78G C82G | -2.66
G44C A83G A111C | -2.73
G44A A66G U133G | -2.29
G44U C70A U116C | -4.01
G44A G122A G127C | -2.85
G44A G63A A111C G122A | -5
G44U A50U G60C C101A C115A | -4.05

Variant | polymerase ribozyme fitness (log ratio)
G44C C85U G117A C124A U125C | -1.55
A43U A46G C53G U87C C115U | -2.37
G44A C53U U125G | -2.16
G44C U106G G110A A119G | -4.41
G44U C62G G117A | -4.71
A43G G63C C82G | -4.47
A43U U59A G60U | -1.17
G44A C53A | 0.047
G44C G69A | -4.37
G44U C49A C56U G117A | -2.64
G44U A68G U92A A119U C124U | -6.31
G44A G48C | -1.44
G44C U116G C124G | -3.04
G44U C53G G60A A121C | 0.687
G44C G58C A121G | 1.21
A43U G57U C86A | -2.97
G44U C72U C76A C88U U109A | -5.19
G44A A75U | -1.11
G44C U81A C89U G110U | -4.45
A43U G58U C62U A74C | -2.24
G44A A84U | -0.594
G44A G60A A68G C85U U106A U129C | -5.96
A43U | -1.2
G44A C64U G128C U132C | -2.96

Variant | polymerase ribozyme fitness (log ratio)
A43G U133G | -1.7
G44U C53G G71U C73A C82U U129G | -3.9
A43G G63C U96C | -2.76
G44C A111G | -0.351
G44A C99A C114A | -5.96
G44C C97G U112A | -4.06
A43U C73A C104A G113U | -5.13
A43U U112G G127U | -2.19
A43U G69C C115A C124U | -3.09
G44U A46U | -1.83
G44A C80A C124A | -3.54
G44C G47U U81A | -4.12
G44A U78A G93U | -1.85
A43U G47U A74U | -2.98
G44C A46U G58A G63U G117A U130G | -6.42
G44A U129A | -1.83
G44U C53A C56A U67C A111C | -6.43
G44A C70U A83G U96C G110U | -6.41
A43U C49G U54A | -2.2
G44C U112G | -1.07
A43U A50C C73U U78C C94G | -4.28
G44C A121C | 0.904
G44C C80A G110U C124A | -6.53
G44A G57U C85U C104A U109A G120C | -4.62

Variant | polymerase ribozyme fitness (log ratio)
G44C U92C C124A | 0.556
A43G G107U G110C A118U C124A | -7.12
A43U U59A A66U | -4.54
A43G G71A C82A G120U A121C | -3.35
G44C C88G G117A C123G | -2.7
G44C C56G G69U | -2.28
A43U G113C | -3.56
G44A G51A C76A U92A G117C | -6.37
A43U C88U A95C | -2.51
G44A C99U | -4.58
A43U G45A G58C | -1.24
G44A C56U A84C G120C | -0.295
A43G G69C | -2.38
A43U C49A G51C C56G G63C U106A | -7.03
A43U U81A C85G | -3.37
G44U C53U | -1.59
A43G G71A A100U | -6.07
G44A C56G C76A C86A | -2.93
A43U C56U C79A | -3.22
A43U C88G A95U | -3.19
A43U G63A A95G G120U G128U | -4.88
G44U C53A C56A A111C | -0.781
G44C U92G | -2.61
